Laboratory results reported in the RNAGym collection of RNA variant scans (doi:10.1021/acssynbio.7b00057).

B1: Pistol ribozyme (parent)
chain: GGGUCGUUGUUCCAUAAUCGCGUGGAUAUGGCACGCAAGUUUCUACCGGGCACCGUAAAUGUCCGACUGGAGCCGUUCGGGCGGCUAUAAACAGACCUCAGGCCCGAAGCGUGGCGGCACCUGCCGCCGGUGGUAAAAAAGAUCGGAAGAGCACACGUCU

Variants of: B1
Experiment: aptazyme ON/OFF ratio, guanine; higher = stronger switching; co-transcriptional cleavage with and without guanine

Compared with GGGUCGGCAUGUAAUAAUCGCGUGGAUAUGGCACGCAAGUUUCUACCGGGCACCGUAAAUGUCCGACUGGAGCCGUUCGGGCGGCUAUAAACAGACCUCAGGCCCGAAGCGUGGCGGCACCUGCCGCCGGUGGUAAAAAAGAUCGGAAGAGCACACGUCU, GGGUCGGCAUGUUAUAAUCGCGUGGAUAUGGCACGCAAGUUUCUACCGGGCACCGUAAAUGUCCGACUGGAGCCGUUCGGGCGGCUAUAAACAGACCUCAGGCCCGAAGCGUGGCGGCACCUGCCGCCGGUGGUAAAAAAGAUCGGAAGAGCACACGUCU is higher in “aptazyme ON/OFF ratio” value: 1.11 for the first, 1.18 for the second.

First: GGGUCGGCAUGUGAUAAUCGCGUGGAUAUGGCACGCAAGUUUCUACCGGGCACCGUAAAUGUCCGACUGGAGCCGUUCGGGCGGCUAUAAACAGACCUCAGGCCCGAAGCGUGGCGGCACCUGCCGCCGGUGGUAAAAAAGAUCGGAAGAGCACACGUCU
Second: GGGUCGGCAUACUAUAAUCGCGUGGAUAUGGCACGCAAGUUUCUACCGGGCACCGUAAAUGUCCGACUGGAGCCGUUCGGGCGGCUAUAAACAGACCUCAGGCCCGAAGCGUGGCGGCACCUGCCGCCGGUGGUAAAAAAGAUCGGAAGAGCACACGUCU
The “aptazyme ON/OFF ratio” value of the first is lower: 1.07 for the first, 1.21 for the second.

Going from GGGUCGGCAUACAAUAAUCGCGUGGAUAUGGCACGCAAGUUUCUACCGGGCACCGUAAAUGUCCGACUGGAGCCGUUCGGGCGGCUAUAAACAGACCUCAGGCCCGAAGCGUGGCGGCACCUGCCGCCGGUGGUAAAAAAGAUCGGAAGAGCACACGUCU to GGGUCGGCAUACGAUAAUCGCGUGGAUAUGGCACGCAAGUUUCUACCGGGCACCGUAAAUGUCCGACUGGAGCCGUUCGGGCGGCUAUAAACAGACCUCAGGCCCGAAGCGUGGCGGCACCUGCCGCCGGUGGUAAAAAAGAUCGGAAGAGCACACGUCU, the “aptazyme ON/OFF ratio” value falls from 1.14 to 1.03.

Compared with GGGUCGGCAUCGUAUAAUCGCGUGGAUAUGGCACGCAAGUUUCUACCGGGCACCGUAAAUGUCCGACUGGAGCCGUUCGGGCGGCUAUAAACAGACCUCAGGCCCGAAGCGUGGCGGCACCUGCCGCCGGUGGUAAAAAAGAUCGGAAGAGCACACGUCU, GGGUCGGCAUCGAAUAAUCGCGUGGAUAUGGCACGCAAGUUUCUACCGGGCACCGUAAAUGUCCGACUGGAGCCGUUCGGGCGGCUAUAAACAGACCUCAGGCCCGAAGCGUGGCGGCACCUGCCGCCGGUGGUAAAAAAGAUCGGAAGAGCACACGUCU is lower in “aptazyme ON/OFF ratio” value: 1.16 for the first, 1.05 for the second.

Compared with GGGUCGGCAUCGGAUAAUCGCGUGGAUAUGGCACGCAAGUUUCUACCGGGCACCGUAAAUGUCCGACUGGAGCCGUUCGGGCGGCUAUAAACAGACCUCAGGCCCGAAGCGUGGCGGCACCUGCCGCCGGUGGUAAAAAAGAUCGGAAGAGCACACGUCU, GGGUCGGCAUCGCAUAAUCGCGUGGAUAUGGCACGCAAGUUUCUACCGGGCACCGUAAAUGUCCGACUGGAGCCGUUCGGGCGGCUAUAAACAGACCUCAGGCCCGAAGCGUGGCGGCACCUGCCGCCGGUGGUAAAAAAGAUCGGAAGAGCACACGUCU is higher in “aptazyme ON/OFF ratio” value: 1.05 for the first, 1.4 for the second.

Compared with GGGUCGGCAUCUCAUAAUCGCGUGGAUAUGGCACGCAAGUUUCUACCGGGCACCGUAAAUGUCCGACUGGAGCCGUUCGGGCGGCUAUAAACAGACCUCAGGCCCGAAGCGUGGCGGCACCUGCCGCCGGUGGUAAAAAAGAUCGGAAGAGCACACGUCU, GGGUCGGCAUCACAUAAUCGCGUGGAUAUGGCACGCAAGUUUCUACCGGGCACCGUAAAUGUCCGACUGGAGCCGUUCGGGCGGCUAUAAACAGACCUCAGGCCCGAAGCGUGGCGGCACCUGCCGCCGGUGGUAAAAAAGAUCGGAAGAGCACACGUCU is higher in “aptazyme ON/OFF ratio” value: 1.65 for the first, 2 for the second.

Compared with GGGUCGGCAUAUUAUAAUCGCGUGGAUAUGGCACGCAAGUUUCUACCGGGCACCGUAAAUGUCCGACUGGAGCCGUUCGGGCGGCUAUAAACAGACCUCAGGCCCGAAGCGUGGCGGCACCUGCCGCCGGUGGUAAAAAAGAUCGGAAGAGCACACGUCU, GGGUCGGCAUAUAAUAAUCGCGUGGAUAUGGCACGCAAGUUUCUACCGGGCACCGUAAAUGUCCGACUGGAGCCGUUCGGGCGGCUAUAAACAGACCUCAGGCCCGAAGCGUGGCGGCACCUGCCGCCGGUGGUAAAAAAGAUCGGAAGAGCACACGUCU is higher in “aptazyme ON/OFF ratio” value: 1.05 for the first, 1.09 for the second.

Going from GGGUCGGCAUAUGAUAAUCGCGUGGAUAUGGCACGCAAGUUUCUACCGGGCACCGUAAAUGUCCGACUGGAGCCGUUCGGGCGGCUAUAAACAGACCUCAGGCCCGAAGCGUGGCGGCACCUGCCGCCGGUGGUAAAAAAGAUCGGAAGAGCACACGUCU to GGGUCGGCAUGCAAUAAUCGCGUGGAUAUGGCACGCAAGUUUCUACCGGGCACCGUAAAUGUCCGACUGGAGCCGUUCGGGCGGCUAUAAACAGACCUCAGGCCCGAAGCGUGGCGGCACCUGCCGCCGGUGGUAAAAAAGAUCGGAAGAGCACACGUCU, the “aptazyme ON/OFF ratio” value rises from 1.08 to 1.14.

Going from GGGUCGGCAUGGGAUAAUCGCGUGGAUAUGGCACGCAAGUUUCUACCGGGCACCGUAAAUGUCCGACUGGAGCCGUUCGGGCGGCUAUAAACAGACCUCAGGCCCGAAGCGUGGCGGCACCUGCCGCCGGUGGUAAAAAAGAUCGGAAGAGCACACGUCU to GGGUCGGCAUGGAAUAAUCGCGUGGAUAUGGCACGCAAGUUUCUACCGGGCACCGUAAAUGUCCGACUGGAGCCGUUCGGGCGGCUAUAAACAGACCUCAGGCCCGAAGCGUGGCGGCACCUGCCGCCGGUGGUAAAAAAGAUCGGAAGAGCACACGUCU, the “aptazyme ON/OFF ratio” value falls from 1.08 to 1.07.

Compared with GGGUCGGCAUGGUAUAAUCGCGUGGAUAUGGCACGCAAGUUUCUACCGGGCACCGUAAAUGUCCGACUGGAGCCGUUCGGGCGGCUAUAAACAGACCUCAGGCCCGAAGCGUGGCGGCACCUGCCGCCGGUGGUAAAAAAGAUCGGAAGAGCACACGUCU, GGGUCGGCAUCUGAUAAUCGCGUGGAUAUGGCACGCAAGUUUCUACCGGGCACCGUAAAUGUCCGACUGGAGCCGUUCGGGCGGCUAUAAACAGACCUCAGGCCCGAAGCGUGGCGGCACCUGCCGCCGGUGGUAAAAAAGAUCGGAAGAGCACACGUCU is higher in “aptazyme ON/OFF ratio” value: 1.05 for the first, 1.12 for the second.

Going from GGGUCGGCAUCUUAUAAUCGCGUGGAUAUGGCACGCAAGUUUCUACCGGGCACCGUAAAUGUCCGACUGGAGCCGUUCGGGCGGCUAUAAACAGACCUCAGGCCCGAAGCGUGGCGGCACCUGCCGCCGGUGGUAAAAAAGAUCGGAAGAGCACACGUCU to GGGUCGGCAUCUAAUAAUCGCGUGGAUAUGGCACGCAAGUUUCUACCGGGCACCGUAAAUGUCCGACUGGAGCCGUUCGGGCGGCUAUAAACAGACCUCAGGCCCGAAGCGUGGCGGCACCUGCCGCCGGUGGUAAAAAAGAUCGGAAGAGCACACGUCU, the “aptazyme ON/OFF ratio” value rises from 1.08 to 1.15.

GGGUCGGCAUGAGAUAAUCGCGUGGAUAUGGCACGCAAGUUUCUACCGGGCACCGUAAAUGUCCGACUGGAGCCGUUCGGGCGGCUAUAAACAGACCUCAGGCCCGAAGCGUGGCGGCACCUGCCGCCGGUGGUAAAAAAGAUCGGAAGAGCACACGUCU and GGGUCGGCAUGAAAUAAUCGCGUGGAUAUGGCACGCAAGUUUCUACCGGGCACCGUAAAUGUCCGACUGGAGCCGUUCGGGCGGCUAUAAACAGACCUCAGGCCCGAAGCGUGGCGGCACCUGCCGCCGGUGGUAAAAAAGAUCGGAAGAGCACACGUCU are the same in “aptazyme ON/OFF ratio” value: 1.1 for the first, 1.1 for the second.

First: GGGUCGGCAUGAUAUAAUCGCGUGGAUAUGGCACGCAAGUUUCUACCGGGCACCGUAAAUGUCCGACUGGAGCCGUUCGGGCGGCUAUAAACAGACCUCAGGCCCGAAGCGUGGCGGCACCUGCCGCCGGUGGUAAAAAAGAUCGGAAGAGCACACGUCU
Second: GGGUCGGCAUCCCAUAAUCGCGUGGAUAUGGCACGCAAGUUUCUACCGGGCACCGUAAAUGUCCGACUGGAGCCGUUCGGGCGGCUAUAAACAGACCUCAGGCCCGAAGCGUGGCGGCACCUGCCGCCGGUGGUAAAAAAGAUCGGAAGAGCACACGUCU
The “aptazyme ON/OFF ratio” value of the first is lower: 1.12 for the first, 1.4 for the second.

Compared with GGGUCGGCAUGCCAUAAUCGCGUGGAUAUGGCACGCAAGUUUCUACCGGGCACCGUAAAUGUCCGACUGGAGCCGUUCGGGCGGCUAUAAACAGACCUCAGGCCCGAAGCGUGGCGGCACCUGCCGCCGGUGGUAAAAAAGAUCGGAAGAGCACACGUCU, GGGUCGGCAUCAUAUAAUCGCGUGGAUAUGGCACGCAAGUUUCUACCGGGCACCGUAAAUGUCCGACUGGAGCCGUUCGGGCGGCUAUAAACAGACCUCAGGCCCGAAGCGUGGCGGCACCUGCCGCCGGUGGUAAAAAAGAUCGGAAGAGCACACGUCU is higher in “aptazyme ON/OFF ratio” value: 1.3 for the first, 1.5 for the second.

Compared with GGGUCGGCAUCAGAUAAUCGCGUGGAUAUGGCACGCAAGUUUCUACCGGGCACCGUAAAUGUCCGACUGGAGCCGUUCGGGCGGCUAUAAACAGACCUCAGGCCCGAAGCGUGGCGGCACCUGCCGCCGGUGGUAAAAAAGAUCGGAAGAGCACACGUCU, GGGUCGGCAUCAAAUAAUCGCGUGGAUAUGGCACGCAAGUUUCUACCGGGCACCGUAAAUGUCCGACUGGAGCCGUUCGGGCGGCUAUAAACAGACCUCAGGCCCGAAGCGUGGCGGCACCUGCCGCCGGUGGUAAAAAAGAUCGGAAGAGCACACGUCU is lower in “aptazyme ON/OFF ratio” value: 1.17 for the first, 1.11 for the second.

First: GGGUCGGCAUCCUAUAAUCGCGUGGAUAUGGCACGCAAGUUUCUACCGGGCACCGUAAAUGUCCGACUGGAGCCGUUCGGGCGGCUAUAAACAGACCUCAGGCCCGAAGCGUGGCGGCACCUGCCGCCGGUGGUAAAAAAGAUCGGAAGAGCACACGUCU
Second: GGGUCGGCAUCCGAUAAUCGCGUGGAUAUGGCACGCAAGUUUCUACCGGGCACCGUAAAUGUCCGACUGGAGCCGUUCGGGCGGCUAUAAACAGACCUCAGGCCCGAAGCGUGGCGGCACCUGCCGCCGGUGGUAAAAAAGAUCGGAAGAGCACACGUCU
The “aptazyme ON/OFF ratio” value of the first is higher: 1.21 for the first, 1.06 for the second.

Going from GGGUCGGCAUCCAAUAAUCGCGUGGAUAUGGCACGCAAGUUUCUACCGGGCACCGUAAAUGUCCGACUGGAGCCGUUCGGGCGGCUAUAAACAGACCUCAGGCCCGAAGCGUGGCGGCACCUGCCGCCGGUGGUAAAAAAGAUCGGAAGAGCACACGUCU to GGGUCGGCAUGUCAUAAUCGCGUGGAUAUGGCACGCAAGUUUCUACCGGGCACCGUAAAUGUCCGACUGGAGCCGUUCGGGCGGCUAUAAACAGACCUCAGGCCCGAAGCGUGGCGGCACCUGCCGCCGGUGGUAAAAAAGAUCGGAAGAGCACACGUCU, the “aptazyme ON/OFF ratio” value falls from 1.34 to 1.3.

Compared with GGGUCGGCAUGGCAUAAUCGCGUGGAUAUGGCACGCAAGUUUCUACCGGGCACCGUAAAUGUCCGACUGGAGCCGUUCGGGCGGCUAUAAACAGACCUCAGGCCCGAAGCGUGGCGGCACCUGCCGCCGGUGGUAAAAAAGAUCGGAAGAGCACACGUCU, GGGUCGGCAUGACAUAAUCGCGUGGAUAUGGCACGCAAGUUUCUACCGGGCACCGUAAAUGUCCGACUGGAGCCGUUCGGGCGGCUAUAAACAGACCUCAGGCCCGAAGCGUGGCGGCACCUGCCGCCGGUGGUAAAAAAGAUCGGAAGAGCACACGUCU is lower in “aptazyme ON/OFF ratio” value: 1.14 for the first, 1.1 for the second.
